T1: Cas12i3 S801R (Unidentified, S801R)
T1 chain: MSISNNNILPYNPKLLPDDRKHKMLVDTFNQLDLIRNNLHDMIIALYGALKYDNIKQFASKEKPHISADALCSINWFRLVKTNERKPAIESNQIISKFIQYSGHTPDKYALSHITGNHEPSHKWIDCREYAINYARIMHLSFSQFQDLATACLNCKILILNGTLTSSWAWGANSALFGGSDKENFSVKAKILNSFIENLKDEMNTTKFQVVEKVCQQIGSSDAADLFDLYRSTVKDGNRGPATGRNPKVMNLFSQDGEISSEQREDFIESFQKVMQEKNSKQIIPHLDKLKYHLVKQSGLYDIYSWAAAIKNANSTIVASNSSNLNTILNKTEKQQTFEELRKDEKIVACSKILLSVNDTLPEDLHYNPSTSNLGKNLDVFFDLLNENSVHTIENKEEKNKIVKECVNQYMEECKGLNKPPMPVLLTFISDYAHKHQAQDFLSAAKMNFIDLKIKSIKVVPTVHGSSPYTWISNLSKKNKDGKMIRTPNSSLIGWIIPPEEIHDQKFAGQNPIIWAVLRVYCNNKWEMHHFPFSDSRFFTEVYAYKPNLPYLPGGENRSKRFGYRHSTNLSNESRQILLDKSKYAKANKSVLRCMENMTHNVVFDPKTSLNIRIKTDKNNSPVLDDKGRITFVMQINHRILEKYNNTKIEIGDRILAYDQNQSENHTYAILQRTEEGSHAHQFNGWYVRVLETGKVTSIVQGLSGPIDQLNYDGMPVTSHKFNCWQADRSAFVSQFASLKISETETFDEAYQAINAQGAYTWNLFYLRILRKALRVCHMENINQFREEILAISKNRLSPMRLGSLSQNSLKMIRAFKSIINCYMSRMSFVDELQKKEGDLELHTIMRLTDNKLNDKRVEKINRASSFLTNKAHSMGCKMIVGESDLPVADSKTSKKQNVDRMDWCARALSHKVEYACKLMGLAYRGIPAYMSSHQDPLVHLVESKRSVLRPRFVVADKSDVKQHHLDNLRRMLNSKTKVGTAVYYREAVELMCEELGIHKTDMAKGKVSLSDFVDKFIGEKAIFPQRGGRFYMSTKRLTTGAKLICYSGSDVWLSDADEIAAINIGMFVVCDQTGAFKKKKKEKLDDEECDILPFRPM

T2: Cas12i3 S559R (Unidentified, S559R)
T2 chain: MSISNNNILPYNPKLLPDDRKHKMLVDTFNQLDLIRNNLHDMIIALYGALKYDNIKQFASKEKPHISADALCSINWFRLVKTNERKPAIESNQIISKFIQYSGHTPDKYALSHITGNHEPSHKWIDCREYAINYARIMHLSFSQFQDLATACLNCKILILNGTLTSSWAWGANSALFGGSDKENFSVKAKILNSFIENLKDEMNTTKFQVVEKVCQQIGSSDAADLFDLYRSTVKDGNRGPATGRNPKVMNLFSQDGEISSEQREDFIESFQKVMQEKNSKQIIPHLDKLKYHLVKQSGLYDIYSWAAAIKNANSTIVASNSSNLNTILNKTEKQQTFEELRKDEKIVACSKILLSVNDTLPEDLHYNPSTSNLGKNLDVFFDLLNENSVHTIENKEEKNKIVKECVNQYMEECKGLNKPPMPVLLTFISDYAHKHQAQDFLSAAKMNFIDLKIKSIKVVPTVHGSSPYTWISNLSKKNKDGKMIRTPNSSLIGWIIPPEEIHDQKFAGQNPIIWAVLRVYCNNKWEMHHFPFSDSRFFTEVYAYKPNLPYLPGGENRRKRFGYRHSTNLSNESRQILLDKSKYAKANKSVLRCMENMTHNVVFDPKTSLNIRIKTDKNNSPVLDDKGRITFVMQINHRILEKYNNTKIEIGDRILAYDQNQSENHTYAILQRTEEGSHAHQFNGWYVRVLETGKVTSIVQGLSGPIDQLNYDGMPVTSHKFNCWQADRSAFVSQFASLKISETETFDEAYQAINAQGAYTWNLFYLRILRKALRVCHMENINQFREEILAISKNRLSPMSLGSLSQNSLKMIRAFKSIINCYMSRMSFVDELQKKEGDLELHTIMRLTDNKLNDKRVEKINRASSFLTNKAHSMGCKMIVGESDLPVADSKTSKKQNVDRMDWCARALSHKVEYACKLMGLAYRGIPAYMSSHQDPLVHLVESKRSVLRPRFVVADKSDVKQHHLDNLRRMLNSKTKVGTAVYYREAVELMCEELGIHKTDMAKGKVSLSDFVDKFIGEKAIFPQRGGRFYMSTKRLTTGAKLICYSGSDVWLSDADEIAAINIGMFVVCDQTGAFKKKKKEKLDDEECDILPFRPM


Legend:
[1] = target: T1, Cas12i3 S801R; assay: cell_activity; fold change in % indels, HEK293T; PAM not stated in example
Protocol: (§1) Approximately 16 hours prior to transfection, 100 μl of 25,000 HEK293T cells in DMEM/10% FBS+Pen/Strep were plated into each well of a 96-well plate. On the day of transfection, the cells were 70-90% confluent. For each well to be transfected, a mixture of 0.5 μl of Lipofectamine 2000 and 9.5 μl of Opti-MEM was prepared and then incubated at room temperature for 5-20 minutes (Solution 1). […] In the case of negative controls, the crRNA was not included in Solution 2. The solution 1 and solution 2 mixtures were mixed by pipetting up and down and then incubated at room temperature for 25 minutes. Following incubation, 20 μL of the Solution 1 and Solution 2 mixture were added dropwise to each well of a 96 well plate containing the cells. 72 hours post transfection, cells are trypsinized by adding 10 μL of TrypLE to the center of each well and incubated for approximately 5 minutes. 100 μL of D10 media was then added to each well and mixed to resuspend cells. The cells were then spun down at 500 g for 10 minutes, and the supernatant was discarded. QuickExtract buffer was added to ⅕ the amount of the original cell suspension volume. Cells were incubated at 65° C. for 15 minutes, 68° C. for 15 minutes, and 98° C. for 10 minutes.
(§2) Samples for Next Generation Sequencing were prepared by two rounds of PCR. The first round (PCR1) was used to amplify specific genomic regions depending on the target. PCR1 products were purified by column purification. Round 2 PCR (PCR2) was done to add Illumina adapters and indexes. Reactions were then pooled and purified by column purification. Sequencing runs were done with a 150 cycle NextSeq v2.5 mid or high output kit.

[2] = target: T2, Cas12i3 S559R; assay: as above
Protocol: as §1, §2

| Binder | binding signal [1] | binding signal [2] |
| --- | --- | --- |
| EMX1_T5 crRNA ; EMX1_T5 target (ssRNA ; dsDNA) RNA: AUAGUGUGUCCUUAGUUGACAUUAUUAUUCCCAUAGGGAAGG DNA 1: TATTATTCCCATAGGGAAGG DNA 2: CCTTCCCTATGGGAATAATA | 1.44 fold of wild-type | 0.95 fold of wild-type |
| AAVS1_T3 crRNA ; AAVS1_T3 target (ssRNA ; dsDNA) RNA: AUAGUGUGUCCUUAGUUGACAUGUGAGAAUGGUGCGUCCUAG DNA 1: GTGAGAATGGTGCGTCCTAG DNA 2: CTAGGACGCACCATTCTCAC | 2.2 fold of wild-type | 1.28 fold of wild-type |
| VEGFA_T2 crRNA ; VEGFA_T2 target (ssRNA ; dsDNA) RNA: AUAGUGUGUCCUUAGUUGACAUAAUCCUCCACCAGUCAUGGU DNA 1: AATCCTCCACCAGTCATGGT DNA 2: ACCATGACTGGTGGAGGATT | 1.74 fold of wild-type | 1.17 fold of wild-type |
